One block for each binder: values may come before it.
Assays:
Core_INII-es_KEKK = biological target: T1, Core_INII-es_KEKK; experiment: two-hybrid library CCmax; conditions: mean of both orientations;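 also: natural log of median RNA to DNA barcode read ratio; higher means stronger binding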
T1 chain: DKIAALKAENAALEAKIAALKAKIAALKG

Core_INNN-es_KKKK = biological target: T2, Core_INNN-es_KKKK; experiment: two-hybrid library CCmax; conditions: mean of both orientations;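 also: natural log of median RNA to DNA barcode read ratio; higher means stronger binding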
T2 chain: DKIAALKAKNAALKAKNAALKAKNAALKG

P10bH1 = biological target: T3, P10bH1; experiment: two-hybrid library CCNG1;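 also: natural log of median RNA to DNA barcode read ratio; higher means stronger binding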
T3 chain: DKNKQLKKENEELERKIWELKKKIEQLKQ

P11bH1 = biological target: T4, P11bH1; experiment: two-hybrid library CCNG1;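 also: natural log of median RNA to DNA barcode read ratio; higher means stronger binding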
T4 chain: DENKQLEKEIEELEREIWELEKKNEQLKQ

P12bH1 = biological target: T5, P12bH1; experiment: two-hybrid library CCNG1;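 also: natural log of median RNA to DNA barcode read ratio; higher means stronger binding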
T5 chain: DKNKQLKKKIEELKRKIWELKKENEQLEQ

P1bH1 = biological target: T6, P1bH1; experiment: two-hybrid library CCNG1;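 also: natural log of median RNA to DNA barcode read ratio; higher means stronger binding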
T6 chain: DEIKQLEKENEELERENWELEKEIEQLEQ

P2bH1 = biological target: T7, P2bH1; experiment: two-hybrid library CCNG1
T7 chain: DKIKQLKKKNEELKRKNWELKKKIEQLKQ

P3bH1 = biological target: T8, P3bH1; experiment: two-hybrid library CCNG1
T8 chain: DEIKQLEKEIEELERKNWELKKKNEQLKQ

P4bH1 = biological target: T9, P4bH1; experiment: two-hybrid library CCNG1
T9 chain: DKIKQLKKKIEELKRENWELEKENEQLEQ

P5bH1 = biological target: T10, P5bH1; experiment: two-hybrid library CCNG1
T10 chain: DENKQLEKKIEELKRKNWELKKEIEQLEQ

P6bH1 = biological target: T11, P6bH1; experiment: two-hybrid library CCNG1
T11 chain: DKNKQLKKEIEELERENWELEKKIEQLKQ

P7bH1 = biological target: T12, P7bH1; experiment: two-hybrid library CCNG1
T12 chain: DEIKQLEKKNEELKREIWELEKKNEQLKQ

P8bH1 = biological target: T13, P8bH1; experiment: two-hybrid library CCNG1
T13 chain: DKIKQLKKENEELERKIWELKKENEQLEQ

P9bH1 = biological target: T14, P9bH1; experiment: two-hybrid library CCNG1
T14 chain: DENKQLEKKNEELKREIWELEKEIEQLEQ

4H1110-AA = biological target: T15, 4H1110-AA; experiment: two-hybrid library CCmax
T15 chain: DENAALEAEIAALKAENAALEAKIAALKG

4H1136-AA = biological target: T16, 4H1136-AA; experiment: two-hybrid library CCmax; conditions: mean of both orientations
T16 chain: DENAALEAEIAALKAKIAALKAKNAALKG

4H1257-AA = biological target: T17, 4H1257-AA; experiment: two-hybrid library CCmax; conditions: mean of both orientations
T17 chain: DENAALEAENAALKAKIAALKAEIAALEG

4H140-AA = biological target: T18, 4H140-AA; experiment: two-hybrid library CCmax; conditions: mean of both orientations
T18 chain: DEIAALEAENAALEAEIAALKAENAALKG

4H1802-AA = biological target: T19, 4H1802-AA; experiment: two-hybrid library CCmax; conditions: mean of both orientations
T19 chain: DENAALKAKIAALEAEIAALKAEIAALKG

4H2600-AA = biological target: T20, 4H2600-AA; experiment: two-hybrid library CCmax; conditions: mean of both orientations
T20 chain: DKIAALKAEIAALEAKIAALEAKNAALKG

4H2721-AA = biological target: T21, 4H2721-AA; experiment: two-hybrid library CCmax; conditions: mean of both orientations
T21 chain: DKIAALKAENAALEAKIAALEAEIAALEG

4H2750-AA = biological target: T22, 4H2750-AA; experiment: two-hybrid library CCmax; conditions: mean of both orientations
T22 chain: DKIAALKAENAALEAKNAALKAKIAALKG

4H2898-AA = biological target: T23, 4H2898-AA; experiment: two-hybrid library CCmax; conditions: mean of both orientations
T23 chain: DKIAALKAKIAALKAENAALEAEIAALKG

4H3020-AA = biological target: T24, 4H3020-AA; experiment: two-hybrid library CCmax; conditions: mean of both orientations
T24 chain: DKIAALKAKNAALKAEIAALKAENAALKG

4H3365-AA = biological target: T25, 4H3365-AA; experiment: two-hybrid library CCmax; conditions: mean of both orientations
T25 chain: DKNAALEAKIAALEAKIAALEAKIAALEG

4H355-AA = biological target: T26, 4H355-AA; experiment: two-hybrid library CCmax; conditions: mean of both orientations
T26 chain: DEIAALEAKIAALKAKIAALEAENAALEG

4H3651-AA = biological target: T27, 4H3651-AA; experiment: two-hybrid library CCmax; conditions: mean of both orientations
T27 chain: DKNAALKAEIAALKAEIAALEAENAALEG

4H3705-AA = biological target: T28, 4H3705-AA; experiment: two-hybrid library CCmax; conditions: mean of both orientations
T28 chain: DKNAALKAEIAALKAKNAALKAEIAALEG

4H3782-AA = biological target: T29, 4H3782-AA; experiment: two-hybrid library CCmax; conditions: mean of both orientations
T29 chain: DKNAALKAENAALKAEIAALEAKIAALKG

4H465-AA = biological target: T30, 4H465-AA; experiment: two-hybrid library CCmax; conditions: mean of both orientations
T30 chain: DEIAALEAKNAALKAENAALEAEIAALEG

4H486-AA = biological target: T31, 4H486-AA; experiment: two-hybrid library CCmax; conditions: mean of both orientations
T31 chain: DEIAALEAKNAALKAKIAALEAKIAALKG

4H535-AA = biological target: T32, 4H535-AA; experiment: two-hybrid library CCmax; conditions: mean of both orientations
T32 chain: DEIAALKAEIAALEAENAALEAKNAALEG

4H58-AA = biological target: T33, 4H58-AA; experiment: two-hybrid library CCmax; conditions: mean of both orientations
T33 chain: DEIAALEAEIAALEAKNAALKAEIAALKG

4H895-AA = biological target: T34, 4H895-AA; experiment: two-hybrid library CCmax; conditions: mean of both orientations
T34 chain: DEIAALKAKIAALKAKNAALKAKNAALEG

4H_APH = biological target: T35, 4H_APH; experiment: two-hybrid library CCmax; conditions: mean of both orientations
T35 chain: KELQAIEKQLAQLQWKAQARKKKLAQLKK

4H_BCR = biological target: T36, 4H_BCR; experiment: two-hybrid library CCmax; conditions: mean of both orientations
T36 chain: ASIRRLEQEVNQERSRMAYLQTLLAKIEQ

4H_GCN4 = experiment: two-hybrid library CCmax
GCN2_T = experiment: two-hybrid library CCmax
Core_IINN-es_KKKE = biological target: T37, Core_IINN-es_KKKE; experiment: two-hybrid library CCmax; conditions: mean of both orientations
T37 chain: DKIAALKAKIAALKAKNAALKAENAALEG

Core_ININ-es_KKEE = biological target: T38, Core_ININ-es_KKEE; experiment: two-hybrid library CCmax; conditions: mean of both orientations
T38 chain: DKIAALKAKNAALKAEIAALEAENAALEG

Core_NIIN-es_KKKK = biological target: T39, Core_NIIN-es_KKKK; experiment: two-hybrid library CCmax; conditions: mean of both orientations
T39 chain: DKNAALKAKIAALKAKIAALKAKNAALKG

Core_IINN-es_KEEK = biological target: T40, Core_IINN-es_KEEK; experiment: two-hybrid library CCmax; conditions: mean of both orientations
T40 chain: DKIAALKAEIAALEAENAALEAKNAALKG

Sequence of 4H_GCN4 (chain, as listed by the source): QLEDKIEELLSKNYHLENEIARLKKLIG

Binder: DEIAALEAKNAALKAEIAALEAEIAALEG [Core_INII-es_EKEE]
interaction score (Core_INII-es_KEKK): 1.83

Binder: DKNKQLKKENEELERKIWELKKKIEQLKQ [P10bH1]
interaction score (P10bH1): 0.178
interaction score (P11bH1): 0.862
interaction score (P12bH1): -0.838
interaction score (P1bH1): 1.14
interaction score (P2bH1): -1.33
interaction score (P3bH1): 1.35
interaction score (P4bH1): -0.889
interaction score (P5bH1): -0.973
interaction score (P6bH1): 0.126
interaction score (P7bH1): 0.654
interaction score (P8bH1): -0.375
interaction score (P9bH1): 1.04

Binder: DENAALEAEIAALKAENAALEAKIAALKG [4H1110-AA]
interaction score (4H1110-AA): 0.405
interaction score (4H1136-AA): -1.36
interaction score (4H1257-AA): -0.798
interaction score (4H140-AA): -1.14
interaction score (4H1802-AA): -1.32
interaction score (4H2600-AA): -1.01
interaction score (4H2721-AA): -0.718
interaction score (4H2750-AA): -0.176
interaction score (4H2898-AA): 1.96
interaction score (4H3020-AA): 1.51
interaction score (4H3365-AA): -1.2
interaction score (4H355-AA): -0.0666
interaction score (4H3651-AA): -1.2
interaction score (4H3705-AA): 2.63
interaction score (4H3782-AA): -0.707
interaction score (4H465-AA): -1.11
interaction score (4H486-AA): 1.93
interaction score (4H535-AA): -1.39
interaction score (4H58-AA): 1.28
interaction score (4H895-AA): 0.133
interaction score (4H_APH): -1.53
interaction score (4H_BCR): 0.0686
interaction score (4H_GCN4): -0.932
interaction score (GCN2_T): -0.988

Binder: DEIAALEAEIAALEAENAALEAKNAALKG [Core_IINN-es_EEEK]
interaction score (Core_IINN-es_KKKE): 2.03

Binder: DEIAALEAKIAALKAKNAALKAENAALEG [Core_IINN-es_EKKE]
interaction score (Core_IINN-es_KEEK): 1.87

Further lines, results first:

interaction score (Core_INNN-es_KKKK): 2.18
Binder: DEIAALEAENAALEAENAALEAENAALEG [Core_INNN-es_EEEE]

interaction score (Core_ININ-es_KKEE): 2.03
Binder: DEIAALEAENAALEAKIAALKAKNAALKG [Core_ININ-es_EEKK]

interaction score (Core_NIIN-es_KKKK): 1.68
Binder: DENAALEAEIAALEAEIAALEAENAALEG [Core_NIIN-es_EEEE]
